Test results published in patent publication US9926375B2, “Anti-endoglin antibodies and uses thereof” (Tracon Pharmaceuticals, Inc., priority 2014, dated 2018).
“Also recorded” adds a separate entry of the source.

Key:
human CD105 [1] = molecular target: T1, human CD105 (Homo sapiens, UniProt P17813); experiment: Competition ELISA against biotinylated TRC205 antibody for binding to human CD105; details: biotinylated TRC205 55 ng/ml
T1 construct: purchased R&D Systems 1097-EN
T1 sequence (P17813 26-586 limits assumed): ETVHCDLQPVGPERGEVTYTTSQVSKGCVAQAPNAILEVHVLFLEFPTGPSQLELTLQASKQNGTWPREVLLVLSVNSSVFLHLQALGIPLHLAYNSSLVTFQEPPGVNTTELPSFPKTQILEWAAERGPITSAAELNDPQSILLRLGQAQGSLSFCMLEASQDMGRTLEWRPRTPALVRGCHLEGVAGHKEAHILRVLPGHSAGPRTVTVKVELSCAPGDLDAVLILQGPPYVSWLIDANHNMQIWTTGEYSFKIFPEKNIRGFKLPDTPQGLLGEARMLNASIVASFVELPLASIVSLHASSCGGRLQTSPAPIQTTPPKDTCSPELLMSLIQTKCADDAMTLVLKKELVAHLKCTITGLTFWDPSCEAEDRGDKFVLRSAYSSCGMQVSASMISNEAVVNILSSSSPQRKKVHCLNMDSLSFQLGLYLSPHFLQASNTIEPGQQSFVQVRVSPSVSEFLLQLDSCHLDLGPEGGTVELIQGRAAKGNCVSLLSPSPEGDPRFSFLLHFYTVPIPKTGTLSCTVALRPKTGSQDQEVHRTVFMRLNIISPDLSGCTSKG
Experimental: After washing three times with PBST, a three-fold dilution series of either human BMP9 (R&D Systems Cat. No. 3209-BP-010) (413 nM to 0.56 nM), or unlabelled TRC205 antibody (40 nM to 0.05 nM) or a single concentration of an irrelevant antibody (66 nM) was mixed with a fixed concentration of biotinylated TRC205 antibody (55 ng/ml) and added to the plate. Following incubation for 1 hour at room temperature, the plate was washed three times with PBST and binding of the biotinylated TRC205 antibody was detected using streptavidin-HRP (Sigma Cat. No. 55512) and TMB substrate (Sigma Cat. No. T0440). OD450 nm values were measured on a Dynex MRX TCII plate reader.

NASH mice = experiment: Murine model of non-alcoholic steatohepatitis (NASH; STZ and high fat diet); type: in vivo, mouse
Text: The purpose of this study was to examine the protective effects of endoglin antibodies on a murine model of NASH.
NASH was established by a single subcutaneous injection of STZ (Sigma, USA) after birth and feeding with a high fat diet (HFD; CLEA Japan, Japan) ad libitum after 4 weeks of age (day 28±2).
Randomization of mice into 6 groups of 10 mice was done at 9 weeks of age (day 63±2), the day before the start of treatment.
Group 3 (Positive control; Temlisartan Group): Ten NASH mice were be orally administered pure water supplemented with telmisartan at a dose of 10 mg/kg once daily from day 63 to 84.
Group 4 (Antibody M1043: M1043 Group): Ten NASH mice were intravenously administered vehicle supplemented with Antibody M1043 at a dose of 10 mg/kg twice weekly at day 63, 66, 70, 73, 77 and 80.
Group 5 (Antibody TRC105; TRC105 Group): Ten NASH mice were intravenously administered vehicle supplemented with Antibody TRC105 at a dose of 10 mg/kg twice weekly at day 63, 66, 70, 73, 77 and 80.
Group 6 (Antibody TRC205; TRC205 Group): Ten NASH mice were intravenously administered vehicle supplemented with Antibody TRC205 at a dose of 10 mg/kg twice weekly at days 63, 66, 70, 73, 77 and 80.
Mice in all groups were terminated for the following assays at 12 weeks of age.
H&E staining of liver tissue was conducted to estimate NAFLD Activity score.
Total NAS score represents the sum of scores for steatosis, lobular inflammation, and ballooning, and ranges from 0-8. Diagnosis of NASH (or, alternatively, fatty liver not diagnostic of NASH) should be made first, then NAS is used to grade activity. In the reference study, NAS scores of 0-2 occurred in cases largely considered not diagnostic of NASH, scores of 3-4 were evenly divided among those considered not diagnostic, borderline, or positive for NASH. Scores of 5-8 occurred in cases that were largely considered diagnostic of NASH.
Statistical tests were performed using Bonferroni Multiple Comparison Test. P values<0.05 were considered statistically significant.

human CD105 [2] = molecular target: T1, human CD105; experiment: ELISA binding of biotinylated TRC205 antibody to human CD105; details: from the binding curve
Experimental: An ELISA was established to determine the binding of biotinylated TRC205 antibody to human CD105 as follows: The TRC205 antibody (SEQ ID NO 89/SEQ ID NO 93; IgG4) was biotinylated using a Lightning-Link Biotin Conjugation Kit (Type A) (Innova Biosciences Cat. No. 704-0010) according to the manufacturer's instructions. […] After washing three times with PBST, a three-fold dilution series of biotinylated TRC205 antibody (10 μg/ml to 0.014 μg/ml) in PBST/2% BSA was added in duplicate to the plate. Following incubation for 1 hour at room temperature, the plate was washed three times with PBST and binding of the biotinylated TRC205 antibody was detected using streptavidin-HRP (Sigma Cat. No. 55512) and TMB substrate (Sigma Cat. No. T0440). OD450 nm values were measured on a Dynex MRX TCII plate reader.

[3] = liver gene expression, mean ± SD, Normal-Vehicle 1.0

B1: TRC205: humanized and deimmunized anti-endoglin antibody (SEQ ID NO 89/SEQ ID NO 93; IgG4) (antibody, V domains shown)
VH: EVQLVESGGGLVKPGGSLRLSCAASGFTFSDAWMDWVRQAPGKGLEWVGEARSKASNHATYYAESVKGRFTISRDDSKNTLYLQMNSLKTEDTAVYYCTRWRRFFDSWGQGTLVTVSS
VL: DIQMTQSPSSLSASVGDRATITCRASSSVSYMHWYQQKPGKAPKPWAYATSNLASGVPSRFSGSGSGTDYTLTISSLQPEDFATYYCQQWSSNPLTFGGGTKVEIK
Human CD105 [1]
  IC50 of competition with biotinylated TRC205 antibody: 0.26 µg/mL
NASH mice; Bonferroni, P<0.05
  Alpha-smooth muscle actin mRNA expression levels compared with the NASH-Vehicle group: significantly down-regulated
  Liver triglyceride contents compared with the NASH-Vehicle group: significant decreases
  Mean liver-to-body weight ratio compared with the NASH-Vehicle group: tended to decrease; also recorded: no significant difference
  NAS compared with the NASH-Vehicle group: significant decreases in NAS; also recorded: significant reductions of NAS
  Serum alanine aminotransferase (ALT) levels compared with the NASH-Vehicle group: tended to decrease
  Serum alkaline phosphatase (ALP) levels compared with the NASH-Vehicle group: significant decrease
  Serum aspartate aminotransferase (AST) levels compared with the NASH-Vehicle group: tended to decrease
  Tissue inhibitor of metalloproteinase-1 mRNA expression levels compared with the NASH-Vehicle group: tended to decrease
  Tumor necrosis factor-alpha mRNA expression levels compared with the NASH-Vehicle group: tended to increase
NASH mice; F4/80 immunostaining, macrophage marker
  F4/80-positive signals and cells in liver compared with the NASH-Vehicle group: Lower F4/80-positive signals and positive cells
NASH mice; [3]
  Alpha-SMA mRNA expression: 1.1 ± 0.3
  MCP-1 mRNA expression: 9.3 ± 9.1
  TIMP-1 mRNA expression: 6.0 ± 2.6
  TNF-α mRNA expression: 6.2 ± 2.4
NASH mice; mean ± SD
  Liver triglyceride: 29.3 ± 9.4 mg/g liver
  Serum ALP: 264 ± 63 U/L
  Serum ALT: 28 ± 16 U/L
  Serum AST: 83 ± 41 U/L
NASH mice; mean ± SD, liver sections
  Sirius red-positive area: 0.93 ± 0.14%
NASH mice; mean ± SD, range 0-8, 10 mg/kg
  NAS (NAFLD Activity score): 3.6 ± 1.1
NASH mice; score 0 = No Foci
  Lobular inflammation score 0, number of mice: 5
NASH mice; score 0 = None
  Hepatocyte ballooning score 0, number of mice: 1
NASH mice; score 1 = 5-33%
  Steatosis score 1, number of mice: 6
NASH mice; score 1 = Few balloon cells
  Hepatocyte ballooning score 1, number of mice: 4
NASH mice; score 2 = 2-4 foci/200x
  Lobular inflammation score 2, number of mice: 4
NASH mice; score 2 = >33-66%
  Steatosis score 2, number of mice: 3
NASH mice; score 2 = Many cells/prominent ballooning
  Hepatocyte ballooning score 2, number of mice: 4
NASH mice; summary of lobular inflammation score and F4/80 immunostaining
  Inflammatory cell infiltration in the liver: reductions in inflammatory cell infiltration in the liver
Human CD105 [2]
  EC50 of binding to human CD105: 0.046 µg/mL
